Results published in US20180335433A1, “COMPOSITIONS TARGETING PKC-THETA AND USES AND METHODS OF TREATING PKC-THETA PATHOLOGIES, ADVERSE IMMUNE RESPONSES AND DISEASES” (La Jolla Institute for Allergy and Immunology, priority 2011, published 2018).

Biological target: T1, CD28 (Mus musculus, UniProt P31041)
T1 construct: PKCθ^−/− primary CD4^+ T cells were infected with a retrovirus expressing a Myc-tagged V3 alone; endogenous in cells; host or cells: primary CD4+ T cells of PKCθ-/- mice, retrovirally transduced only with Myc-tagged V3
T1 sequence (P31041 20-218): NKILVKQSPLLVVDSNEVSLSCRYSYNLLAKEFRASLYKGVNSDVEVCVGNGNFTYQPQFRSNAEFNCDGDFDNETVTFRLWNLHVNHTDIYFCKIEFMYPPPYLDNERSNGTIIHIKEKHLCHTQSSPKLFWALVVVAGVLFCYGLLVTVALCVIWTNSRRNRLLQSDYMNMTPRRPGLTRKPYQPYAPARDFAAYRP
T1 sequence (P06240 2-509 partner): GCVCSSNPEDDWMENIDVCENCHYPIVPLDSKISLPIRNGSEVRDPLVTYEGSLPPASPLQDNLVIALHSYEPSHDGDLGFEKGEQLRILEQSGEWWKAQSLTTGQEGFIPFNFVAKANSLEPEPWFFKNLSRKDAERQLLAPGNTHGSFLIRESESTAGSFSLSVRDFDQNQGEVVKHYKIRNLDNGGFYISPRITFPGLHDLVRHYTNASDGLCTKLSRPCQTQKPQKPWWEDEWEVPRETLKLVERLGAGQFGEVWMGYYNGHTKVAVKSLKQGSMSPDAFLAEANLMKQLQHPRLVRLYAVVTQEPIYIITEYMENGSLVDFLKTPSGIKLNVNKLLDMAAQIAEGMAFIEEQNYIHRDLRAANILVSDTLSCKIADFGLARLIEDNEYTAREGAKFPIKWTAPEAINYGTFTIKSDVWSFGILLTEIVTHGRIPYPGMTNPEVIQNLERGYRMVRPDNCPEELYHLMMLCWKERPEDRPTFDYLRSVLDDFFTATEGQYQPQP
Assay: Co-immunoprecipitation of Myc-tagged V3 with CD28 in PKCθ−/− primary CD4+ T cells
Format: binding
Settings: Myc-tagged V3 alone, retrovirus, CD3+CD28 mAbs 5 min
Procedure: (FIG. 2A) Schematic representation of PKCθ mutants. (FIG. 2B) Jurkat E6.1 cells transfected with the indicated PKCθ or PKCδ vectors were stimulated with anti-CD3/CD28 mAbs for 5 min. (FIG. 2C-2E) PKC CD4^+ T cells were infected with retrovirus expressing empty pMIG vector, WT PKCθ, or PKCθ−ΔV3 (FIG. 2C); WT PKCθ, PKCθ/δV3, or WT PKCδ (FIG. 2D); empty pMIG-vector or Myc-tagged V3 of PKCθ (FIG. 2E). Cells were harvested and restimulated with CD3+CD28 mAbs for 5 min. Cell lysates were prepared, immunoprecipitated with anti-CD28 mAb, resolved by SDS-PAGE, and immunoblotted with the indicated Abs. (FIG. 2F) Jurkat T cells cotransfected with Myc-tagged PKCθ−V3 plus CFP-tagged CD28 were mixed with SEE-pulsed Raji B cells at a 1:1 ratio. Conjugates were fixed and stained with a rabbit anti-Myc Ab plus a secondary Alexa 488-coupled antibody. Data shown is from four studies.
Retrovirally transduced CD4^+ T cells were stimulated with anti-CD3 and anti-CD28 mAbs for 5 min. Cell lysis in 1% digitonin lysis buffer, immunoprecipitation and Western blotting were carried out as described (Yokosuka, T. et al. Immunity 29, 589-601 (2008)).
To determine whether the V3 domain is sufficient for this interaction, PKCθ^−/− primary CD4^+ T cells were infected with a retrovirus expressing a Myc-tagged V3 alone. […]

B1: V3 domain: amino acid 282-379 of human PKCθ with N-terminal Myc tag, expressed from pMIG retroviral vector (protein)
chain: GINQKLMAEALAMIESTQQARCLRDTEQIFREGPVEIGLPCSIKNEARPPCLPTPGKREPQGISWESPLDEVDKMCHLPEPELNKERPSLQIKLKIED
modifications: left off: small tags and cut ends
notes: amino acid 282-379 of human PKCθ with N-terminal Myc tag, expressed from pMIG retroviral vector
- coimmunoprecipitation with CD28: coimmunoprecipitated with CD28
